These results are taken from patent publication US20240368283A1.

pKd: −log10 of the molar value.

For one test, the target named is human FcγRIIβ (human) (UniProt P31994). Description: SPR, antibody captured on ProA/G HC30M chip, recombinant human FcγRIIβ injected (4 nM-5 uM); average kinetic KD. Background: Surface plasmon resonance follows binding to a sensor surface in real time, without labels.
In the next test the target is Hu FcγRIIA_H131 (human) (UniProt P12318). The test is described as follows: SPR-type chip kinetics; antibody captured on protein A/G chip, receptor as analyte.
Sequence of Hu FcγRIIA_H131 (human) (P12318 36-218 limits assumed): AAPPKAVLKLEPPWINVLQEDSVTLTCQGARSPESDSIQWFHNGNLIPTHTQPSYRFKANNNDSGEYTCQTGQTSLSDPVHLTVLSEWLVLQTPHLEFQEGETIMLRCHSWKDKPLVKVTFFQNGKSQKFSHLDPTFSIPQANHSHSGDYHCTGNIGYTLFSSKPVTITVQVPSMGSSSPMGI
In another test the target is Hu FcγRIIA_R131 (human) (UniProt P12318). The description is as above.
Sequence of Hu FcγRIIA_R131 (human) (P12318 36-218 H167R limits assumed): as the sequence (P12318 36-218 limits assumed) above, with H132R counted along it

Sequence of human FcγRIIβ (human) (P31994 46-217 limits assumed): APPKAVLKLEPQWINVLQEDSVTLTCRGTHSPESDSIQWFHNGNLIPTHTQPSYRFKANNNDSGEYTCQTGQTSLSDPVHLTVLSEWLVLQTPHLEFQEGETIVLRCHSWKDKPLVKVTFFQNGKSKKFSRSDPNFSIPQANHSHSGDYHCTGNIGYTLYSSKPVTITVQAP

In general, pKd refers to the negative decadic logarithm of the Kd, by convention in mol/L. On to 2B6 (antibody), for which, in the test with human FcγRIIβ (human), the pKd is 9.39.

As for IgG1 WT (antibody), the figures for the pKd in the test with Hu FcγRIIA_H131 (human) and with Hu FcγRIIA_R131 (human) were 6.00 and 5.81, respectively.
